{
  "source": "patent US11426447B2",
  "about": "“Neuregulin for the treatment of tumors of the nervous system” (LEIBNIZ-INSTITUT FUR …, priority 2016, dated 2022)",
  "molecules": {"B1": {"name": "rhNRG1: EGF domain containing 7 kDa protein of recombinant human Neuregulin 1, purchased from Reprokine (#RKQ02297) (protein, listed as Homo sapiens)", "chain": "SHLVKCAEKEKTFCVNGGECFMVKDLSNPSRYLCKCPNEFTGDRCQNYVMASFYKHLGIEF"}},
  "key": {"[1]": {"system": "neurofibromas", "assay": "Quantification of tumors in Nf1flox;Postn-Cre mice", "type": "in vivo", "settings": "intraperitoneal rhNRG1 for three months, vs saline", "description": "PFA-fixed tissue blocks derived from rhNRG1 and control treated animals containing lower spinal cord, lumbar dorsal root ganglions (DRG) as well as distal nerve proportions were cut in 4 planes per animal. Photographs were subsequently scanned and analyzed using the NanoZoomer Digital Pathology Software. The total area occupied by peripheral nerve tissue and dorsal root ganglion (DRG) tissue in mm^2 was quantified separately. Likewise, neoplastic tissue regions were identified and quantified separately for peripheral nerves and DRG areas. All quantitative analyses of tumorlets in Nf2flox;Postn-Cre mice were performed in blinded manner.\nAnother closely related but not similar entity of Schwann cell tumors are neurofibromas. As opposed to schwannomas, Schwann cells represent the primary neoplastic cell component of neurofibromas (Stemmer-Rachamimov et al., 2004; Rodriguez et al., 2012), but also incorporate a mixture of non-neoplastic components, including axons, perineurial cells, fibroblasts and inflammatory cells. In order to test a possible effect of rhNRG1 treatment on these tumors, which are a typical manifestation of the hereditary disease Neurofibromatosis type 1 (NF1), 4-month-old mutant Nf1flox;Postn-Cre animals as well as wildtype littermates were either treated with saline control injections or intraperitoneal rhNRG1 administration for three months (FIG. 9A). […]"}, "[2]": {"system": "Schwann cell differentiation markers in crushed sciatic nerves", "assay": "Immunoblot of sciatic nerve lysates after 3 months of treatment", "type": "in vivo, Nf2flox;P0-Cre;Nefh-Cre mice", "experimental": "Immunoblotting was performed as described in (Morrison et al., 2001). The following primary antibodies were used: phospho-c-Jun (Ser73; 1:1000; Cell Signalling; 8752), anti-Nrg1 (1:250; Santa Cruz; clone C-20), anti-Erk (1:500; Cell Signalling), anti-phospho-Erk (T202/Y204; 1:500; Cell Signalling), anti-ErbB2 (1:500; Cell Signalling), anti-GAPDH (1:1000; Santa Cruz; 6C5), anti-merlin (1:500; Santa Cruz; A19). Western blot results were quantified using Gel analysis software by ImageJ. Density values were normalized to actin and appropriate controls of transfection or wild-type tissue, respectively. In case of phospho-specific detection of proteins, their acquired densities were referred to signals derived from related pan-antibodies (e.g. phospho-Erk to Erk signals).\n(§1) Sciatic nerve crush injury was performed on WT and Nf2flox;P0-Cre;Nefh-Cre mutant animals as described in Example 1. The Nf2flox;P0-Cre;Nefh-Cre mutant animals were intraperitoneally injected every day with 10 μg of rhNRG1 per kg body weight (KO rhNRG1). For a control a PBS solution was systemically administered to WT animals and Nf2flox;P0-Cre;Nefh-Cre mutant animals (WT vehicle and KO vehicle). Sciatic nerve lysates were taken from animals after 3 month of treatment upon which immunochemistry was performed as described in Example 1."}, "[3]": {"system": "ErbB2 and myelin protein zero (MPZ) expression", "assay": "Immunoblot of nerve tissue from Nf1flox;Postn-Cre mice", "type": "in vivo", "settings": "rhNRG1 over 3 months", "description": "A, Study protocol used to assess the efficacy of systemic rhNRG1 treatment on schwannoma growth in Nf1flox;Postn-Cre animals. B, Representative longitudinal nerve section from six-month-old mutant Nf1flox;Postn-Cre mice indicating a circumscribed area of neurofibroma growth. Scale bars represent 50 μm. C, Fraction of tumor tissue within total tissue was quantified as area covered by tumor in relation to the total nerve area in investigated nerve sections. Nf1flox;Postn-Cre mutant mice receiving intraperitoneal saline injections (KO vehicle ip) were compared to mutants on rhNRG1 injections (KO rhNRG1 ip; n=6 animals per genotype; mean±SEM). D, Immunoblot of pooled tissue from at least three different animals prepared from sciatic nerves, brachial nerves, trigeminal nerves and dorsal root ganglions (DRG). Nf1flox;Postn-Cre mutant animals received either vehicle control injections (KO vehicle ip) or rhNRG1 treatment (KO rhNRG1 ip) over 3 months. Immunostaining for ErbB2, Akt, phospho-Akt (pAkt), c-Jun, Erk1/2, phospho-Erk1/2 (pErk1/2), myelin protein zero (MPZ), myelin basic protein (MBP) and GAPDH as loading control (n=3).\nImmunoblotting was performed as described in (Morrison et al., 2001). […] Western blot results were quantified using Gel analysis software by ImageJ. […]"}, "[4]": {"settings": "in vivo; cited from earlier work"}, "[5]": {"system": "Schwann cells", "assay": "Neuropathological assessment (HE, immunolabelling) of sciatic nerve cross sections 3 months after crush injury", "type": "in vivo, P0-Cre;Nefh-Cre;Nf2fl/+ mice", "settings": "KO mice", "description": "For histological workup, paraformaldehyd fixed nerve samples were embedded in paraffin, cut at the site of the largest diameter and mounted as a tissue micro array. 4 μm thick cross sections were used for H&E staining and immunohistochemical labelling of S100 (1:8000; Dako), P0 (1:300; Bioss Antibodies), phospho-c-Jun (Ser73; 1:500; Cell Signalling; 8752), ErbB2 (1:500; Cell Signaling) and Arginase-1 (1:200; Santa Cruz; H-52) in an automated Ventana stainer (Ventana Medical Systems, USA) using standard antigen retrieval protocols (CC1st, no pretreatment for S100-protein). Onion-bulbs and schwannoma-like structures were assessed in H&E stained slides.\nImmunohistochemistry was performed as described in (Schulz et al., 2010). Briefly, paraffin-embedded, longitudinal sections of sciatic nerves were rehydrated, boiled in 10 mM sodium citrate buffer (pH9) for 30 min in a microwave and subsequently treated with 0,5% Triton X-100 for 10 min. Sections incubated in 0.2% gelatine and 2% goat serum diluted in PBS at least 2 h. Sections submersed in the primary antibody solution overnight at 4° C. The following primary antibodies were used: Myelin protein zero (P0; 1:200; Abcam; ab39375), neurofilament (1:200; BioLegend; SMI312), myelin basic protein (MBP; 1:500; Millipore; MAB384)), Ki-67 (1:200; eBioscience; Clone: SolA15), lba-1 (1:200; Wako), and p75 (1:200; Merck Millipore; AB 1554). After vigorous washings, sections incubated with secondary antibody solution (Alexa488-, Alexa546- or Alexa647-conjugated anti-mouse, -rat, -chicken and -rabbit antibodies, 1:500 in PBS, Invitrogen) at room temperature for 2 h. Finally specimens washed in PBS, counterstained using DAPI (1 μg/ml PBS, 10 min) dehydrated and embedded. DAPI-stained cell nuclei or lba-1-positive cells were counted using ImageJ plugin ‘Particle Analysis’ from images acquired with 10× magnification after standardized background reduction and threshold setting.\nas §1"}, "[6]": {"settings": "systemic rhNRG1, 3 months after crush injury"}, "[7]": {"settings": "systemic rhNRG1 vs saline-treated same genotype"}},
  "data": [
    {"molecule": "B1", "values": [
      {"measurement": "neurofibromas from distal parts of the nervous system (tumor fraction)", "setting": "[1]", "result": "significant effect"},
      {"measurement": "21.5-kDa MBP isoform expression (immunoblot)", "setting": "[2]; KO rhNRG1", "result": "strong up-regulation"},
      {"measurement": "myelin protein zero (MPZ) expression (immunoblot)", "setting": "[2]; KO rhNRG1, 3 months of treatment, vs wildtype", "result": "reduced expression"},
      {"measurement": "17 kDa myelin basic protein (MBP) isoform expression (immunoblot)", "setting": "[2]; KO rhNRG1 vs wildtype littermates", "result": "remarkable reduced expression"},
      {"measurement": "c-Jun levels (marker for undifferentiated Schwann cells)", "setting": "[2]; knockout animals, systemic rhNRG1 injections", "result": "reduced"},
      {"measurement": "ErbB2 expression (immunoblot)", "setting": "[2]; rhNRG1-treated knockout mice, high in vehicle-treated knockout", "result": "normal expression"},
      {"measurement": "macrophage number in nerve tissue (Iba-1 immunoblot)", "setting": "[2]; systemic rhNRG1 treatment", "result": "not influenced"},
      {"measurement": "ErbB2 expression (immunoblot)", "setting": "[3]", "result": "reduced"},
      {"measurement": "myelin protein zero (MPZ) expression (immunoblot)", "setting": "[3]", "result": "increased"},
      {"measurement": "body weight", "setting": "[4]", "result": "decrease in body weight"},
      {"measurement": "number of immature Schwann cells (p75 staining)", "setting": "[5]; rhNRG1 injections", "result": "relevantly decreased"},
      {"measurement": "immunoreactivity of schwannoma marker CPI-17", "setting": "[5]; rhNRG1 vs KO control injections", "result": "relevantly lower"},
      {"measurement": "S100 and MPZ immunoreactivity", "setting": "[5]; [6]", "result": "restricted to Schwann cells with myelinating phenotype"},
      {"measurement": "nerve regeneration (histology)", "setting": "[5]; [6]", "result": "almost regular regeneration"},
      {"measurement": "expression of Neuregulin1 (immunolabelling)", "setting": "[5]; [7]", "result": "greatly reduced"},
      {"measurement": "expression of receptor tyrosine kinase ErbB2 (immunolabelling)", "setting": "[5]; [7]", "result": "greatly reduced"}
    ]}
  ]
}
